Experimental data reported in publication PMC5862951.

Target: His6-tagged rat SLFN13 N′-domain, residues 14–353 (crystallised rSLFN13_(14–353)) (rat) (UniProt Q5U311)
Experiment: right-angle light scattering (RALS) of eluted protein; purified protein in solution; elution with RALS detection; conditions not shown (Supplementary Fig. 2a)

With “His6-tagged rat SLFN13 N′-domain, residues 14–353 (crystallised rSLFN13_(14–353)) (from UniProt Q5U311 14-353) (domain or fragment)” the stoichiometry N was 2.
